This data set concerns the molecule itself. Description: crystal structure; hanging-drop vapour diffusion at 295 K, 0.1 M MES pH 5.6, 0.1 M ammonium sulfate, 27% PEG 3350; space group C2, three monomers in the asymmetric unit; protein pre-incubated with small-molecule ligands.

B1: Plasmodium falciparum spermidine synthase, 39-residue N-terminally truncated construct (enzyme, UniProt Q8II73 40-321, looked up)
chain: SKKWFSEFSIMWPGQAFSLKIKKILYETKSKYQNVLVFESTTYGKVLVLDGVIQLTEKDEFAYHEMMTHVPMTVSKEPKNVLVVGGGDGGIIRELCKYKSVENIDICEIDETVIEVSKIYFKNISCGYEDKRVNVFIEDASKFLENVTNTYDVIIVDSSDPIGPAETLFNQNFYEKIYNALKPNGYCVAQCESLWIHVGTIKNMIGYAKKLFKKVEYANISIPTYPCGCIGILCCSKTDTGLTKPNKKLESKEFADLKYYNYENHSAAFKLPAFLLKEIENI
notes: Spermidine synthase of Plasmodium falciparum, construct lacking the first 39 N-terminal residues, in the p15-Tev-LIC vector, as described in Dufe et al. (2007); The crystals also held small-molecule ligands (MTA, dcAdoMet, putrescine, spermidine, 4MAN, 4AMA, BIPA); also called PfSpdS; SpdS; source: His-tag removed with TEV protease; not shown: His6, N-terminal, cleaved
Regarding B1, the binding result was “binds”.

The values above are taken from publication PMC4356361, “Three-dimensional structures of Plasmodium falciparum spermidine synthase with bound inhibitors suggest new strategies for drug design” (Acta Crystallographica Section D: Biological Crystallography, 2015).
